Experimental data as given in paper PMC2212946.

Biological target: Fc fragment of IgE (domains Cε2-4) (human)
Experiment: SPR

Chain of Fc fragment of IgE (domains Cε2-4) (human) (P01854 whole entry, the tested form may be a part): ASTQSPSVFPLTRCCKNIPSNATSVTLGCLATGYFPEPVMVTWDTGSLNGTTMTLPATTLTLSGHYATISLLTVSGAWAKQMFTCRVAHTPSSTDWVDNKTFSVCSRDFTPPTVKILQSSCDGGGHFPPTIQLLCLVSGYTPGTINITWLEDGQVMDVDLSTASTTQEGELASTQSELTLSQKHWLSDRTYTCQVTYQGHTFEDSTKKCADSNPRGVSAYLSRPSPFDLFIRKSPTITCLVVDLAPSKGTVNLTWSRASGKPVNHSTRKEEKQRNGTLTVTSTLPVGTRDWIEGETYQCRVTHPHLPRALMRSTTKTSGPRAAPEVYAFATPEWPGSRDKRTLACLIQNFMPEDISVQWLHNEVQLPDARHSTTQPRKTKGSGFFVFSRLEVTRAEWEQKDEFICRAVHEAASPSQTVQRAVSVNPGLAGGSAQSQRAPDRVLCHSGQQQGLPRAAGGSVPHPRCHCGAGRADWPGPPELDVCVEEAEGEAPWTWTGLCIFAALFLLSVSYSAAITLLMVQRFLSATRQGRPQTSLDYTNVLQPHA

Row | Binder | Kd | KD, first of two components | KD, second of two components | koff, major component | koff, minor component
1 | derCD23, recombinant version of the Der p I fragment of human CD23 (FcεRII), C-type lectin domain (domain or fragment) SGFVCNTCPEKWINFQRKCYYFGKGTKQWVHARYACDDMEGQLVSIHSPEEQDFLTKHASHTGSWIGLRNLDLKGEFIWVDGSHVDYSNWAPGEPTSRSQGEDCVMMRGSGRWNDAFCDRKLGAWVCDRLATCTPPASEGSAE | 1.3 µM | – | – | – | –
2 | exCD23, recombinant soluble CD23 fragment containing the entire extracellular sequence (domain or fragment) DTTQSLKQLEERAARNVSQVSKNLESHHGDQMAQKSQSTQISQELEELRAEQQRLKSQDLELSWNLNGLQADLSSFKSQELNERNEASDLLERLREEVTKLRMELQVSSGFVCNTCPEKWINFQRKCYYFGKGTKQWVHARYACDDMEGQLVSIHSPEEQDFLTKHASHTGSWIGLRNLDLKGEFIWVDGSHVDYSNWAPGEPTSRSQGEDCVMMRGSGRWNDAFCDRKLGAWVCDRLATCTPPASEGSAESMGPDSRPDPDGRLPTPSAPLHS | – | 1.1 µM | 0.039 µM | 0.0005 s⁻¹ | 0.04 s⁻¹
